Reference: patent publication US6869925 (Amgen, dated 2005)

T1: human neutrophil elastase (human, UniProt P08246 30-247, limits assumed)
T1 construct: also called HNE
T1 sequence (looked up): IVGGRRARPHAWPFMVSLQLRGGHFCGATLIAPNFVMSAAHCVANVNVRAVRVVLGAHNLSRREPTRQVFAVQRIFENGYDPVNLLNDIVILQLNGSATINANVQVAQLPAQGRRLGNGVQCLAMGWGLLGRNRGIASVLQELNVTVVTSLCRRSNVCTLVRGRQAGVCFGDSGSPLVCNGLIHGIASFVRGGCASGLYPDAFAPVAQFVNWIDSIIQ


Columns and labels:
[1] = biological target: SLPI binding sites on U937 cells (human monocyte cell line; intact cells, PMA-induced cells or plasma membranes) (human); assay: competition with 125I-SLPI, intact U937 cells, competitor at 0 nM
[2] = biological target: SLPI binding sites on U937 cells (human monocyte cell line; intact cells, PMA-induced cells or plasma membranes) (human); assay: competition with 125I-SLPI, intact U937 cells, Kd by Cheng-Prusoff
[3] = biological target: SLPI binding sites on U937 cells (human monocyte cell line; intact cells, PMA-induced cells or plasma membranes) (human); assay: competition with 125I-SLPI, intact U937 cells, competitor at 26 nM
[4] = biological target: SLPI binding sites on U937 cells (human monocyte cell line; intact cells, PMA-induced cells or plasma membranes) (human); assay: competition with 125I-SLPI, intact U937 cells, competitor at 84 nM
[5] = biological target: SLPI binding sites on HuT78 cells (human T cell line) (human); assay: competition with 125I-SLPI, intact HuT78 cells, competitor at 0 nM
[6] = biological target: SLPI binding sites on HuT78 cells (human T cell line) (human); assay: competition with 125I-SLPI, intact HuT78 cells, Kd by Cheng-Prusoff
[7] = biological target: SLPI binding sites on U937 cells (human monocyte cell line; intact cells, PMA-induced cells or plasma membranes) (human); assay: competition with 125I-SLPI, intact U937 cells, competitor at 2.6 nM
[8] = biological target: SLPI binding sites on U937 cells (human monocyte cell line; intact cells, PMA-induced cells or plasma membranes) (human); assay: competition with 125I-SLPI, intact U937 cells, competitor at 270 nM
[9] = biological target: SLPI binding sites on U937 cells (human monocyte cell line; intact cells, PMA-induced cells or plasma membranes) (human); assay: competition with 125I-SLPI, intact U937 cells, competitor at 8.2 nM
[10] = biological target: SLPI binding sites on U937 cells (human monocyte cell line; intact cells, PMA-induced cells or plasma membranes) (human); assay: competition with 125I-SLPI, intact U937 cells, competitor at 860 nM
[11] = biological target: SLPI binding sites on HuT78 cells (human T cell line) (human); assay: competition with 125I-SLPI, intact HuT78 cells, competitor at 84 nM
[12] = biological target: SLPI binding sites on U937 cells (human monocyte cell line; intact cells, PMA-induced cells or plasma membranes) (human); assay: competition with 125I-SLPI, intact U937 cells, competitor at 0.25 nM
[13] = biological target: SLPI binding sites on U937 cells (human monocyte cell line; intact cells, PMA-induced cells or plasma membranes) (human); assay: competition with 125I-SLPI, intact U937 cells, competitor at 0.80 nM
[14] = biological target: SLPI binding sites on U937 cells (human monocyte cell line; intact cells, PMA-induced cells or plasma membranes) (human); assay: competition with 125I-SLPI, intact U937 cells, competitor at 2750 nM
[15] = biological target: SLPI binding sites on HuT78 cells (human T cell line) (human); assay: competition with 125I-SLPI, intact HuT78 cells, competitor at 2.6 nM
[16] = biological target: SLPI binding sites on HuT78 cells (human T cell line) (human); assay: competition with 125I-SLPI, intact HuT78 cells, competitor at 8.2 nM
[17] = biological target: SLPI binding sites on U937 cells (human monocyte cell line; intact cells, PMA-induced cells or plasma membranes) (human); assay: competition with 125I-SLPI, intact U937 cells, competitor at 0.024 nM
[18] = biological target: SLPI binding sites on U937 cells (human monocyte cell line; intact cells, PMA-induced cells or plasma membranes) (human); assay: competition with 125I-SLPI, intact U937 cells, competitor at 0.078 nM
[19] = biological target: SLPI binding sites on HuT78 cells (human T cell line) (human); assay: competition with 125I-SLPI, intact HuT78 cells, competitor at 0.80 nM
[20] = biological target: SLPI binding sites on HuT78 cells (human T cell line) (human); assay: competition with 125I-SLPI, intact HuT78 cells, competitor at 2750 nM
[21] = biological target: SLPI binding sites on U937 cells (human monocyte cell line; intact cells, PMA-induced cells or plasma membranes) (human); assay: competition with 125I-SLPI, U937 plasma membranes, competitor at 0 nM
[22] = biological target: SLPI binding sites on U937 cells (human monocyte cell line; intact cells, PMA-induced cells or plasma membranes) (human); assay: competition with 125I-SLPI, U937 plasma membranes, Kd by Cheng-Prusoff
[23] = biological target: SLPI binding sites on U937 cells (human monocyte cell line; intact cells, PMA-induced cells or plasma membranes) (human); assay: competition with 125I-SLPI, U937 plasma membranes, competitor at 268 nM
[24] = biological target: SLPI binding sites on U937 cells (human monocyte cell line; intact cells, PMA-induced cells or plasma membranes) (human); assay: competition with 125I-SLPI, U937 plasma membranes, competitor at 2.56 nM
[25] = biological target: SLPI binding sites on U937 cells (human monocyte cell line; intact cells, PMA-induced cells or plasma membranes) (human); assay: competition with 125I-SLPI, U937 plasma membranes, competitor at 2750 nM
[26] = biological target: SLPI binding sites on U937 cells (human monocyte cell line; intact cells, PMA-induced cells or plasma membranes) (human); assay: competition with 125I-SLPI, U937 plasma membranes, competitor at 8.20 nM
[27] = biological target: SLPI binding sites on U937 cells (human monocyte cell line; intact cells, PMA-induced cells or plasma membranes) (human); assay: competition with 125I-SLPI, U937 plasma membranes, competitor at 83.9 nM
[28] = biological target: SLPI binding sites on U937 cells (human monocyte cell line; intact cells, PMA-induced cells or plasma membranes) (human); assay: competition with 125I-SLPI, U937 plasma membranes, competitor at 0.800 nM
[29] = biological target: SLPI binding sites on U937 cells (human monocyte cell line; intact cells, PMA-induced cells or plasma membranes) (human); assay: competition with 125I-SLPI, U937 plasma membranes, competitor at 0 nM (second GLY72 row)
[30] = biological target: SLPI binding sites on U937 cells (human monocyte cell line; intact cells, PMA-induced cells or plasma membranes) (human); assay: competition with 125I-SLPI, U937 plasma membranes, competitor at 268 nM (second GLY72 row)
[31] = biological target: SLPI binding sites on U937 cells (human monocyte cell line; intact cells, PMA-induced cells or plasma membranes) (human); assay: competition with 125I-SLPI, U937 plasma membranes, competitor at 2.56 nM (second GLY72 row)
[32] = biological target: SLPI binding sites on U937 cells (human monocyte cell line; intact cells, PMA-induced cells or plasma membranes) (human); assay: competition with 125I-SLPI, U937 plasma membranes, competitor at 2750 nM (second GLY72 row)
[33] = biological target: SLPI binding sites on U937 cells (human monocyte cell line; intact cells, PMA-induced cells or plasma membranes) (human); assay: competition with 125I-SLPI, U937 plasma membranes, competitor at 8.20 nM (second GLY72 row)
[34] = biological target: SLPI binding sites on U937 cells (human monocyte cell line; intact cells, PMA-induced cells or plasma membranes) (human); assay: competition with 125I-SLPI, U937 plasma membranes, competitor at 83.9 nM (second GLY72 row)
[35] = biological target: SLPI binding sites on U937 cells (human monocyte cell line; intact cells, PMA-induced cells or plasma membranes) (human); assay: competition with 125I-SLPI, U937 plasma membranes, competitor at 0.800 nM (second GLY72 row)
[36] = biological target: HIV-1 envelope protein gp120
[37] = biological target: T1, human neutrophil elastase; assay: BIAcore, immobilized Phe72 mutein, monoS fractions of CHAPS-solubilized U937 membranes; identity by comigration
Source text: The BIAcore analytical system is available from Pharmacia Biosensor AB, Uppsala, Sweden.

[38] = biological target: the molecule itself; assay: DSS crosslinking of 2 µM 125I-SLPI in the absence of virus, reducing SDS-PAGE, phosphor imager
Procedure: Incubation was stopped by addition of Laemmli sample buffer. […] The volume of the parallel sample that was loaded on the gel was 5 times larger than the volume of the virus-containing samples.

SLPI mutein Gly 72, sequence (P03973 other isoform, or with tags, fused parts or gaps mutant): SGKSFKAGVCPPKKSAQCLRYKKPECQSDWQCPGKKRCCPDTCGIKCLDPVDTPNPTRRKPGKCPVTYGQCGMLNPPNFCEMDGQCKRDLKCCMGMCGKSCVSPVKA

| Molecule | % *SLPI BOUND [1] [%] | Kd [2] [nM] | % *SLPI BOUND [4] [%] | % *SLPI BOUND [5] [%] | Kd [6] [nM] | % *SLPI BOUND [7] [%] | % *SLPI BOUND [9] [%] | % *SLPI BOUND [11] [%] | % *SLPI BOUND [13] [%] | % *SLPI BOUND [14] [%] | % *SLPI BOUND [15] [%] | % *SLPI BOUND [16] [%] | % *SLPI BOUND [19] [%] | % *SLPI BOUND [20] [%] | CPM *SLPI BOUND [21] [cpm] | Kd [22] [nM] | CPM *SLPI BOUND [23] [cpm] | CPM *SLPI BOUND [24] [cpm] | CPM *SLPI BOUND [25] [cpm] | CPM *SLPI BOUND [26] [cpm] | also measured |
| --- | --- | --- | --- | --- | --- | --- | --- | --- | --- | --- | --- | --- | --- | --- | --- | --- | --- | --- | --- | --- | --- |
| SLPI mutein Gly 72 (from UniProt P03973 26-132) | 131 | 400 | 101 | 100 | 200 | 115 | 117 | 110 | 116 | 28 | 105 | 85 | 108 | 28 | 18700 | 5 | 2840 | 12000 | 1780 | 7210 | % *SLPI BOUND [3]: 112%; % *SLPI BOUND [8]: 75%; % *SLPI BOUND [10]: 53%; % *SLPI BOUND [12]: 120%; % *SLPI BOUND [17]: 116%; % *SLPI BOUND [18]: 118%; CPM *SLPI BOUND [27]: 3710 cpm; CPM *SLPI BOUND [28]: 14700 cpm; CPM *SLPI BOUND [29]: 18700 cpm; CPM *SLPI BOUND [30]: 2530 cpm; CPM *SLPI BOUND [31]: 11300 cpm; CPM *SLPI BOUND [32]: 1430 cpm; CPM *SLPI BOUND [33]: 7300 cpm; CPM *SLPI BOUND [34]: 3940 cpm; CPM *SLPI BOUND [35]: 14000 cpm |
| cathepsin G (protein) IIGGRESRPHSRPYMAYLQIQSPAGQSRCGGFLVREDFVLTAAHCWGSNINVTLGAHNIQRRENTQQHITARRAIRHPQYNQRTIQNDIMLLQLSRRVRRNRNVNPVALPRAQEGLRPGTLCTVAGWGRVSMRRGTDTLREVQLRVQRDRQCLRIFGSYDPRRQICVGDRRERKAAFKGDSGGPLLCNNVAHGIVSYGKSSGVPPEVFTRVSSFLPWIRTTMRS |  |  |  |  |  |  |  |  |  |  |  |  |  |  |  |  |  |  |  |  | proteolytic cleavage of gp120 (Western blot) [36]: gp120 (400 nM) was also incubated at 37° for 30 min, with 10 nM cathepsin G and yielded different bands |
| SLPI mutein Phe 72 (other, human, UniProt P03973 26-132, looked up, mature; also called Phe72 mutein) SGKSFKAGVCPPKKSAQCLRYKKPECQSDWQCPGKKRCCPDTCGIKCLDPVDTPNPTRRKPGKCPVTYGQCFMLNPPNFCEMDGQCKRDLKCCMGMCGKSCVSPVKA | 94 | 2 | 4 | 100 | 3 | 51 | 22 | 36 | 77 | 5 | 90 | 57 | 69 | 1 | 18700 | 1 | 2580 | 8920 | 1540 | 4260 | CPM *SLPI BOUND [27]: 1660 cpm; CPM *SLPI BOUND [28]: 12400 cpm; binding result [37]: binds |
| serine leukocyte protease inhibitor (SLPI) (other, human, UniProt P03973 26-132, looked up, the tracer *SLPI carried I-125 (Bolton Hunter reagent in Examples 12-16, Iodogen in Example 19); positions not given, mature; labelled and cold SLPI are treated as one molecule; also called *SLPI (radiolabelled); cold SLPI) SGKSFKAGVCPPKKSAQCLRYKKPECQSDWQCPGKKRCCPDTCGIKCLDPVDTPNPTRRKPGKCPVTYGQCLMLNPPNFCEMDGQCKRDLKCCMGMCGKSCVSPVKA |  |  |  |  |  |  |  |  |  |  |  |  |  |  |  |  |  |  |  |  | binding result [38]: binds |
